Measurements published in patent US5723299, “Somatostatin receptors” (Arch Development Corporation, dated 1998).
No end group written: not given here.

What was measured:
[1] = target: human somatostatin receptor SSTR1 (human); experiment: competition of [125I]iodo-Tyr11-somatostatin-14 binding to CHO cells stably expressing human SSTR1
Protocol: The resulting constructs were co-transfected with pSV2neo into the dihydrofolate reductase-deficient Chinese hamster ovary (CHO) cell line, DG44, using Lipofectin Reagent (GIBCO BRL, Gaithersburg, Md.). Stable transfectants were selected and maintained in α-MEM (GIBCO BRL) containing 400 vg/ml G418. Each cell line was grown to confluency in 6-well, 35-mm diameter plates at 37° C. The cells were washed with buffer containing 10 mM HEPES, 5 mM KH_2PO_4, 5 mM MgCl_2, 150 mM NaCl, and 1% (wt./vol.) bovine serum albumin (all at pH 7.4), and were stabilized in the same buffer for 30 min at 22° C. […] Incubated cells were washed twice with 2-ml portions of ice-cold buffer and were dissolved in 1 ml of 8M urea in 3M acetic acid. The suspended cells were transferred to a tube, the well was washed with 1 ml of the same solution, and the combined extracts were measured for radioactivity by use of a gamma-counter.
The pharmacological characteristics of SSTR1 were examined in CHO cells that were stably expressing this receptor.

[2] = target: T1, mouse somatostatin receptor SSTR2 (mouse); experiment: competition of [125I]iodo-Tyr11-somatostatin-14 binding to CHO cells transfected with mouse SSTR2
T1 chain: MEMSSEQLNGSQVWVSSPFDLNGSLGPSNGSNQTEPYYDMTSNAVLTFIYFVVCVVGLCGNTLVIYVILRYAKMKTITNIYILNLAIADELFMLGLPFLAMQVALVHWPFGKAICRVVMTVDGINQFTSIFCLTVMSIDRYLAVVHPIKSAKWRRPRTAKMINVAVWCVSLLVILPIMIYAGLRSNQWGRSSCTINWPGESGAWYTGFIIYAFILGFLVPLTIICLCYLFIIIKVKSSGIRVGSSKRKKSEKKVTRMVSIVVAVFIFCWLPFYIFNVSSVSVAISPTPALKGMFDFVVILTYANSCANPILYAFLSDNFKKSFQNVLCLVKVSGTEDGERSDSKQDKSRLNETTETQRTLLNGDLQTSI
Description: At 1.5 PstI/XmnI fragment of the human SSTR1 gene and a 1.2 kb XbaI fragment of the mouse SSTR2 gene were inserted into the mammalian expression vectors pCMV6b and 6c, respectively (a gift of Dr. B. Chapman, Chiron Corp., Emeryville, Calif.). The resulting constructs were co-transfected with pSV2neo into the dihydrofolate reductase-deficient Chinese hamster ovary (CHO) cell line, DG44, using Lipofectin Reagent (GIBCO BRL, Gaithersburg, Md.). Stable transfectants were selected and maintained in α-MEM (GIBCO BRL) containing 400 vg/ml G418. Each cell line was grown to confluency in 6-well, 35-mm diameter plates at 37° C. The cells were washed with buffer containing 10 mM HEPES, 5 mM KH_2PO_4, 5 mM MgCl_2, 150 mM NaCl, and 1% (wt./vol.) bovine serum albumin (all at pH 7.4), and were stabilized in the same buffer for 30 min at 22° C. […] Incubated cells were washed twice with 2-ml portions of ice-cold buffer and were dissolved in 1 ml of 8M urea in 3M acetic acid. The suspended cells were transferred to a tube, the well was washed with 1 ml of the same solution, and the combined extracts were measured for radioactivity by use of a gamma-counter.

human somatostatin receptor SSTR1 (human), sequence (chain, as listed by the source): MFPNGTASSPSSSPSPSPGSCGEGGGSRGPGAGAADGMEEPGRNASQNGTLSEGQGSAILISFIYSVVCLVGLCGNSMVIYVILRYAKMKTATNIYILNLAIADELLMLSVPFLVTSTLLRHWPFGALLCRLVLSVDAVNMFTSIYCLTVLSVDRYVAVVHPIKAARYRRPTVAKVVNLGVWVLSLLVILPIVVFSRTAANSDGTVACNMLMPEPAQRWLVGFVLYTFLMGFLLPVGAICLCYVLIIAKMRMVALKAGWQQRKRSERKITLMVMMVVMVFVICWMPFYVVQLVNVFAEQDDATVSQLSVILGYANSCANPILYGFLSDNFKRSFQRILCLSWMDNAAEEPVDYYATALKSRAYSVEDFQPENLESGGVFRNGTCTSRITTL

Row | Binder | IC50 [1] [nM] | IC50 [2] [nM]
1 | SANSNPAMAPRERKAGCKNFFWKTFTSC [somatostatin-28] | 4.7 | 
2 | AGCKNFFWKTFTSC (not fully specified (bridges); cysteine pairing not given here) [somatostatin-14] |  | 1.6
